Laboratory results published in US12491259B2, “Anti-variable MUC1* antibodies and uses thereof” (Minerva Biotechnologies Corporation, priority 2022, dated 2025).

Key:
[1] = tested on: HPAF II wild-type (WT) pancreatic cancer cells; test: xCELLigence real-time killing assay (impedance); type: cell-based, human; details: for ADC concentration at which essentially all the tumor cells were killed: readout 120 hours post ADC addition
Experimental: In this assay, impedance is measured in real-time. When the adherent cancer cells are killed and come off of the electrode surface, impedance (insulation) decreases. HPAF II wild-type (WT) pancreatic cancer cells were plated onto multi-electrode-well plates at 5,000 cells per well and allowed to adhere and grow for 24 hours before the addition of ADCs. Either MNC2-MMAE, DAR 4.1, MN20A10-MMAE, DAR 5.8, MNC2-MMAF, DAR 3.7, MN20A10-MMAF, DAR 3.8, MNC2-Deruxtecan, DAR 7.2, or MN20A10-Deruxtecan, DAR 4.6, was then added to the cancer cells. […] Taxol and Triton are added as the positive killing control. […] Taxol and Triton are added as the positive killing control. […] As indicated, essentially all the pancreatic tumor cells were killed at an MNC2-MMAE concentration of 56 nM. […] As indicated, essentially all the tumor cells were killed at an MNC2-MMAF concentration of 56 nM. […] Significant killing is measured at 120 hours at a concentration of about 56 nM. […] As indicated, essentially all the tumor cells were killed at an MN20A10-MMAE concentration of 56 nM-19 nM. […] As indicated, essentially all the tumor cells were killed at an MN20A10-MMAF concentration of 56 nM.
To assess real-time killing of target cancer cells including breast cancer cells (T47D), non-small cell lung cancer cells (NCI-H1975) and pancreatic cancer cells (HP AF II) assays were performed on an xCELLigence RTCA MP Instrument (Agilent). Target Cancer cells were seeded onto a multi-electrode well plate at a density of 5000 cells/well (100 μL of a 50,000 cells/mL stock) and incubated for 24 hr in a 37° C./5% CO2 incubator. mAb MNC2 ADCs or mAb MN20A10-ADCs were prepared as a 2× solution in corresponding growth media and 100 μL of each concentration was added to target cells. As a positive control (100% cell killing) cells were treated with either 1% triton or 1 μM Taxol instead of ADC. After 40-120 hours incubation in a 37° C./5% CO2 incubator cell killing was assessed. In this assay, impedance is measured in real-time. […]

[2] = tested on: T47D-MUC1* breast cancer cells; test: xCELLigence real-time killing assay (impedance); type: cell-based, human; details: for ADC concentration at which essentially all (near total) tumor cells were killed: readout 120 hours post ADC addition
Experimental: In this assay, impedance is measured in real-time. When the adherent cancer cells are killed and come off of the electrode surface, impedance (insulation) decreases. […] Either MNC2-MMAE, DAR 4.1, MN20A10-MMAE, DAR 5.8, MNC2-MMAF, DAR 3.7, MN20A10-MMAF, DAR 3.8, MNC2-Deruxtecan, DAR 7.2, or MN20A10-Deruxtecan, DAR 4.6, was then added to the cancer cells. […] Taxol and Triton are added as the positive killing control. […] Taxol and Triton are added as the positive killing control.
In this assay, impedance is measured in real-time. When the adherent cancer cells are killed and come off of the electrode surface, impedance (insulation) decreases. […] Either MNC2-Exatecan, DAR 8.2, MNC2-Deruxtecan, DAR 4.0, MNC2-MMAE, DAR 4.1, or free Exatecan at 50 μM, was then added to the cancer cells.
To assess real-time killing of target cancer cells including breast cancer cells (T47D), non-small cell lung cancer cells (NCI-H1975) and pancreatic cancer cells (HP AF II) assays were performed on an xCELLigence RTCA MP Instrument (Agilent). Target Cancer cells were seeded onto a multi-electrode well plate at a density of 5000 cells/well (100 μL of a 50,000 cells/mL stock) and incubated for 24 hr in a 37° C./5% CO2 incubator. mAb MNC2 ADCs or mAb MN20A10-ADCs were prepared as a 2× solution in corresponding growth media and 100 μL of each concentration was added to target cells. As a positive control (100% cell killing) cells were treated with either 1% triton or 1 μM Taxol instead of ADC. After 40-120 hours incubation in a 37° C./5% CO2 incubator cell killing was assessed. In this assay, impedance is measured in real-time. When the adherent cancer cells are killed and come off the electrode surface, impedance (insulation) decreases.
MNC2-ADCs and MN20A10-ADCs were also assayed for their ability to kill both low and high MUC1* expressing cells by monitoring killing in real-time using an xCELLigence instrument. In the xCelligence system, target cancer cells, which are adherent, are plated onto electrode array 96-well plates. Adherent cells insulate the electrode and increase the impedance. The number of adherent cancer cells is directly proportional to impedance. […] Therefore, increasing impedance reflects the growth of the cancer cells and decreasing impedance reflects the killing of the cancer cells.

Row | Molecule | ADC concentration at which essentially all the tumor cells were killed [1] | ADC concentration at which essentially all the tumor cells are killed ([2]; readout 40 hours post ADC addition) | ADC concentration at which essentially all (near total) tumor cells were killed [2] | concentration as low as which cancer cells are potently killed ([2]; readout 0 to 120 hours, MNC2-Exatecan DAR 8.2, MNC2-Deruxtecan DAR 4.0 (FIG. 55)) | concentration with significant killing ([1]; at 120 hours)
1 | MNC2-MMAF (conjugate) VH: EVQLVESGGGLVKPGGSLRLSCAASGFTFSGYAMSWVRQAPGKGLEWVSTISSGGTYIYYPDSVKGRFTISRDNAKNSLYLQMNSLRAEDTAVYYCARLGGDNYYEYFDVWGKGTTVTVSS VL: DIVLTQSPASLAVSPGQRATITCRASKSVSTSGYSYMHWYQQKPGQPPKLLIYLASNLESGVPARFSGSGSGTDFTLTINPVEANDTANYYCQHSRELPFTFGGGTKVEIKRT | 56 nM |  |  |  | 
2 | MN20A10-MMAF (conjugate) VH: QVQLVESGGGLVKPGGSLRLSCAASGFTFSTYAMSWIRQAPGKGLEWVASIGRAGSTYYSDSVKGRFTISRDNAKNSLYLQMNSLRAEDTAVYYCARGPIYNDYDEFAYWGQGTLVTVSS VL: EIVLTQSPATLSLSPGERATLSCKSSQSVLYSSNQKNYLAWYQQKPGQAPRLLIYWASTRESGIPARFSGSGSGTDFTLTISSLEPEDFAVYYCHQYLSSLTFGGGTKVEIKR | 56 nM | 56 nM | 19 nM |  | 
3 | MNC2-Deruxtecan (conjugate) VH: EVQLVESGGGLVKPGGSLRLSCAASGFTFSGYAMSWVRQAPGKGLEWVSTISSGGTYIYYPDSVKGRFTISRDNAKNSLYLQMNSLRAEDTAVYYCARLGGDNYYEYFDVWGKGTTVTVSS VL: DIVLTQSPASLAVSPGQRATITCRASKSVSTSGYSYMHWYQQKPGQPPKLLIYLASNLESGVPARFSGSGSGTDFTLTINPVEANDTANYYCQHSRELPFTFGGGTKVEIKRT |  |  | 6 nM | as low as 6.2 nM and even as low as 2.1 nM | about 56 nM
